Publication PMC11310338
Like-named read-outs stand apart in the source and are kept apart here.

Columns and labels:
SCAF8-CID [1] = molecular target: T1, SCAF8-CID (human, UniProt Q9UPN6 1-139); assay: competition FP
T1 sequence: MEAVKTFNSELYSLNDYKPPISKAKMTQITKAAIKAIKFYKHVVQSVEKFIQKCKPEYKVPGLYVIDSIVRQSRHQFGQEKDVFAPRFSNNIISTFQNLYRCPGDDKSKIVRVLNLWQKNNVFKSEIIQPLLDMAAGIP

SCAF4-CID [2] = molecular target: T2, SCAF4-CID (human, UniProt O95104 1-139); assay: competition FP
T2 sequence: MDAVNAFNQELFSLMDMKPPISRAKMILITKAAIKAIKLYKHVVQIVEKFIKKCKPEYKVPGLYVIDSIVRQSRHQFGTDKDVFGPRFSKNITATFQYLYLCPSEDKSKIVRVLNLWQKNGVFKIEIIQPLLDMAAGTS

SCAF4-CID [3] = molecular target: T2, SCAF4-CID; assay: SPR
WDR5 [4] = molecular target: T3, WDR5 (human, UniProt P61964 1-334); assay: competition FP
SCAF8-CID [5] = molecular target: T1, SCAF8-CID; assay: SPR
WDR5 [6] = molecular target: T3, WDR5; assay: fluorescence polarization
WDR5 L240K = WDR5 L240K (human, UniProt P61964 1-334, L240K); assay: fluorescence polarization
WDR5 [7] = molecular target: T3, WDR5; assay: SPR
SCAF4-CID [8] = molecular target: T2, SCAF4-CID; assay: fluorescence polarization
SCAF4-CID [9] = molecular target: T2, SCAF4-CID; assay: competition FP; remark: listed apart in the source

Which results are given for TTAAAGGGGTGGGGAGTCAT (ssDNA) [SRiApt-3]?
IC50 (SCAF8-CID [1]): 291 ± 19.7 nM; IC50 (SCAF4-CID [2]): 285 ± 26.6 nM; Kd (SCAF4-CID [3]): 22.7 ± 1 nM

TGGTGGGA (ssDNA) [D1_8-nt] was tested. Which IC50 (SCAF4-CID [2]) did it give?
The IC50 was 1270 ± 864 nM.

With GGACC (ssDNA) [WDR5 lead sequence (H4)] as the binder, how does the IC50 (WDR5 [4]) read?
The IC50 was 8500 ± 4250 nM.

With GGGGTGGGGAG (ssDNA) [SRiApt-1 (F3_11-nt)] as the binder, how does the IC50 (SCAF8-CID [1]) read?
The IC50 was 1500 ± 690 nM.

And the Kd (SCAF8-CID [5])?
Its Kd is 56.3 ± 7.42 nM.

What about the Kd (SCAF4-CID [3]) of the same binder?
Its Kd is 58.4 ± 5.8 nM.

Which results are given for GGTGGGGA (ssDNA) [F1_8-nt]?
IC50 (SCAF4-CID [2]): 554 ± 106 nM; Kd (SCAF4-CID [3]): 88.6 ± 15.1 nM

For AGGTGGGT (ssDNA) [B2_8-nt], which IC50 (SCAF4-CID [2]) is on record?
The IC50 was 1040 ± 419 nM.

And the Kd (SCAF4-CID [3])?
Its Kd is 297 ± 48.1 nM.

With GGGGGCTGGACCCCTCAACT (structured_DNA) [WMiApt-1] as the binder, how does the IC50 (WDR5 [4]) read?
Its IC50 is 431 ± 134 nM.

What about the Kd (WDR5 [6]) of the same binder?
Its Kd is 797 ± 95.2 nM.

Does GGGGGCTGGACCCCTCAACT (structured_DNA) [WMiApt-1] bind (WDR5 L240K)?
Result: binds

And the Kd (WDR5 [7])?
Its Kd is 138 ± 86.7 nM.

What does the source list for GTGGG (ssDNA) [SCAF4_LS (D2_5-nt)]?
Kd (SCAF4-CID [8]): 189 ± 40.1 nM; IC50 (SCAF8-CID [1]): 1960 ± 240 nM; IC50 (SCAF4-CID [9]): 2750 ± 682 nM; Kd (SCAF8-CID [5]): 76.4 ± 7.33 nM; Kd (SCAF4-CID [3]): 140 ± 40.1 nM

Which IC50 (SCAF8-CID [1]) does the source give for CAGGTGGGTTC (ssDNA) [SRiApt-2 (F7_11-nt_B)] here?
The IC50 was 2690 ± 1430 nM.

What about the IC50 (SCAF4-CID [2]) of the same binder?
The IC50 was 400 ± 143 nM.

And the Kd (SCAF8-CID [5])?
The Kd was 90.5 ± 25.8 nM.
